Assay results: article PMC3836737, “Brd4 Is Displaced from HPV Replication Factories as They Expand and Amplify Viral DNA” (PLoS Pathogens, 2013)

Molecular target: T1, Purified FLAG-tagged Brd4 (UniProt O60885 1-1362)
T1 construct: source: purified, described previously [13]
Assay: pull-down
Conditions: one partner purified

| Binder | percent of wildtype E2 binding |
| --- | --- |
| HPV16 E2 I73L (natural protein, 35S-labeled, source: in vitro translated (TNT Coupled Reticulocyte Lysate System, Promega), 35S-labeled) METLCQRLNVCQDKILTHYENDSTDLRDHIDYWKHMRLECAIYYKAREMGFKHINHQVVPTLAVSKNKALQALELQLTLETIYNSQYSNEKWTLQDVSLEVYLTAPTGCIKKHGYTVEVQFDGDICNTMHYTNWTHIYICEEASVTVVEGQVDYYGLYYVHEGIRTYFVQFKDDAEKYSKNKVWEVHAGGQVILCPTSVFSSNEVSSPEIIRQHLANHPAATHTKAVALGTEETQTTIQRPRSEPDTGNPCHTTKLLHRDSVDSAPILTAFNSSHKGRINCNSNTTPIVHLKGDANTLKCLRYRFKKHCTLYTAVSSTWHWTGHNVKHKSAIVTLTYDSEWQRDQFLSQVKIPKTITVSTGFMSI | < 20 % of wildtype E2 binding |
| HPV16 E2 R37K (natural protein, 35S-labeled, source: in vitro translated (TNT Coupled Reticulocyte Lysate System, Promega), 35S-labeled) METLCQRLNVCQDKILTHYENDSTDLRDHIDYWKHMKLECAIYYKAREMGFKHINHQVVPTLAVSKNKALQAIELQLTLETIYNSQYSNEKWTLQDVSLEVYLTAPTGCIKKHGYTVEVQFDGDICNTMHYTNWTHIYICEEASVTVVEGQVDYYGLYYVHEGIRTYFVQFKDDAEKYSKNKVWEVHAGGQVILCPTSVFSSNEVSSPEIIRQHLANHPAATHTKAVALGTEETQTTIQRPRSEPDTGNPCHTTKLLHRDSVDSAPILTAFNSSHKGRINCNSNTTPIVHLKGDANTLKCLRYRFKKHCTLYTAVSSTWHWTGHNVKHKSAIVTLTYDSEWQRDQFLSQVKIPKTITVSTGFMSI | < 20 % of wildtype E2 binding |
